The target of this assay is insulin receptor ectodomain (UniProt P06213). Briefly: SPR; insulin receptor immobilised; svPDE flowed at 0.25, 0.5, 1.0, 2.0, 4.0 and 8.0 uM; KD by steady-state affinity model; apparent. In general terms: In SPR one partner is held on a chip, and binding of the other changes the refractive index at the surface.

“snake venom phosphodiesterase (svPDE) from Naja atra (from UniProt A0A2D0TC04 1-830)”: the Kd was 1.8 µM.

(Values after paper PMC10121219.)
